Data on 21 molecules can be found in patent US20120316071A1 (published 2012).

The target in assay [1] is T1, Recombinant Human DLL4 (R&D Systems Cat#1506-D4/CF) (human, UniProt Q9NR61 27-524).
T1 construct: Bought recombinant protein; also called delta-like protein 4; rHuman DLL4
The assay is described as follows: ECL 96-well plate assay; 0.02 uM Fab, plate coated with 30 ug/mL DLL4.

The target of assay [2] is T1, Recombinant Human DLL4 (R&D Systems …). The experiment in a line: ECL 96-well plate assay; 0.004 uM Fab, plate coated with 15 ug/mL DLL4.
For assay [3], the target named is T2, rHuman EGF R/Fc Chimera, CF (R&D Systems Cat#344-ER) (human, UniProt P00533 25-645).
T2 construct: Bought recombinant protein; also called epidermal growth factor receptor
The assay is described as follows: ECL multispot (MSD) binding assay, antigen spotted on plate.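 Also: purified Fab incubated 1 h at 20 °C on antigen spots, detected with TAG-labelled antibody, electrochemiluminescence compared with each well's blank, signal-to-blank ratio ≥4 counted as hit.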

In assay [4] the target is T3, rHuman ErbB2/Fc Chimera, CF (R&D Systems Cat#1129-ER) (human, UniProt P04626 23-652).
T3 construct: Bought recombinant protein; also called human epidermal growth factor 2 receptor
Described as above.

Assay [5] has as its target T4, rHuman IGF-1 sR, (IGF-1 sR), CF (R&D Systems Cat#391-GR) (human, UniProt P08069 31-932).
T4 construct: Bought recombinant soluble receptor; also called insulin-like growth factor-1 soluble receptor
The assay is described as above.

In assay [6] the target is T5, rHuman P-Cadherin/Fc Chimera, CF (R&D Systems Cat#861-PC) (human, UniProt P22223 108-654).
T5 construct: Bought recombinant protein
The description is as above.

Assay [7] deals with T6, Recombinant Human DLL4 (R&D Systems Cat#1506-D4/CF) (human, UniProt Q9NR61 27-524).
T6 construct: Bought recombinant protein; also called delta-like protein 4; rHuman DLL4
Described as above.

Assay [8] deals with T7, rHuman HGF R/c-MET/Fc Chimera, CF (R&D Systems Cat#358-MT/CF) (human, UniProt P08581 25-932).
T7 construct: Bought recombinant protein; also called HGF R/Fc; hepatocyte growth factor receptor
The assay is described as above.

Assay [9] addresses T8, rHuman ErbB2/Fc Chimera, CF (R&D Systems Cat#1129-ER) (human, UniProt P04626 23-652).
T8 construct: Bought recombinant Fc chimera; also called human epidermal growth factor 2 receptor; Fc part of the bought chimera not given
The assay is described as follows: ECL multispot (MSD), antigen spotted, Fab in solution.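 Also: purified Fab incubated 1 h at 20 °C on antigen-spotted wells, bound Fab detected via TAG detection antibody, ECL compared with each well's blank, ratio of 4 or above scored as hit.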

In assay [10] the target is T9, rHuman IGF-1 sR, (IGF-1 sR), CF (R&D Systems Cat#391-GR) (human, UniProt P08069 31-932).
T9 construct: Bought recombinant soluble receptor; The column head prints only 'IGF-1'; also called insulin-like growth factor-1 soluble receptor
The assay is described as above.

The target of assay [11] is T10, rHuman P-Cadherin/Fc Chimera, CF (R&D Systems Cat#861-PC) (human, UniProt P22223 108-654).
T10 construct: Bought recombinant Fc chimera; Fc part of the bought chimera not given
Described as above.

The target in assay [12] is T11, rHuman EGF R/Fc Chimera, CF (R&D Systems Cat#344-ER) (human, UniProt P00533 25-645).
T11 construct: Bought recombinant Fc chimera; also called epidermal growth factor receptor; Fc part of the bought chimera not given
The assay is described as above.

Assay [13] addresses T12, rHuman HGF R/c-MET/Fc Chimera, CF (R&D Systems Cat#358-MT/CF) (human, UniProt P08581 25-932).
T12 construct: Bought recombinant Fc chimera; also called HGF R/Fc; hepatocyte growth factor receptor; Fc part of the bought chimera not given
The assay is described as above.

The target in assay [14] is T13, rHuman Erythropoietin R/Fc Chimera, CF (R&D Systems Cat#963-ER) (human, UniProt P19235 25-250).
T13 construct: Bought recombinant Fc chimera; also called EPO R; EPO R/Fc; Fc part of the bought chimera not given
T13 sequence (looked up): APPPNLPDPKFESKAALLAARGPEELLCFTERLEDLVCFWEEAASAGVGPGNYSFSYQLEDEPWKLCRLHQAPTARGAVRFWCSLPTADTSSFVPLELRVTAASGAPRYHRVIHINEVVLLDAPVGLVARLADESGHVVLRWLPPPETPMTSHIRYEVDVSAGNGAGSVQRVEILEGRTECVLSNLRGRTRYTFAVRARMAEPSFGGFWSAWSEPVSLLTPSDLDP
The description is as above.

In assay [15] the target is T14, rHuman CD44/Fc Chimera, CF (R&D Systems Cat#3660-CD) (human, UniProt P16070 21-220).
T14 construct: Bought recombinant Fc chimera; Fc part of the bought chimera not given
The assay is described as above.

Assay [16] addresses T15, rHuman Notch-1/Fc Chimera, CF (R&D Systems Cat#3647-TK) (human, UniProt P46531 19-526).
T15 construct: Bought recombinant Fc chimera; Fc part of the bought chimera not given
The assay is described as above.

In assay [17] the target is T16, Recombinant Human DLL4 (R&D Systems Cat#1506-D4/CF) (human, UniProt Q9NR61 27-524).
T16 construct: also called delta-like protein 4; Delta-like 4
The assay is described as follows: ECL (MSD) multispot binding assay, immobilised recombinant human DLL4, Fab at 0.04 uM.

Changes are numbered by the printed parent chain. Names may count otherwise.

B1: Fab VH1-46_IGHD6-6*01_IGHJ1*01 S103stop & L6_IGKJ1*01 (Fab, V domains shown)
VH: QVQLVQSGAEVKKPGASVKVSCKASGYTFTSYYMHWVRQAPGQGLEWMGIINPSGGSTSYAQKFQGRVTMTRDTSTSTVYMELSSLRSEDTAVYYCAREEYS
VL: not shown
notes: The heavy chain is therefore truncated in CDR3 and carries no CH1 or tags
In the case of B1, the Signal/Noise in assay [1] came out at 0.8; in [2], 1.1.

B2: Fab VH1-46_IGHD6-6*01_IGHJ1*01 S102A & L6_IGKJ1*01 (Fab, V domains shown)
VH: QVQLVQSGAEVKKPGASVKVSCKASGYTFTSYYMHWVRQAPGQGLEWMGIINPSGGSTSYAQKFQGRVTMTRDTSTSTVYMELSSLRSEDTAVYYCAREEYASSSAEYFQHWGQGTLVTVSS
VL: not shown
notes: Fab; heavy chain CDR3 NNK mutant of the parent; Constant parts as for the parent Fab
For the molecule B2, the values for the Signal/Noise in [1] and in [2] were 51.7 and 69.8, respectively.

B3: Fab VH1-46_IGHD6-6*01_IGHJ1*01 S102A/S103P/S104F/H111F (APFF) & L6_IGKJ1*01 (Fab, V domains shown)
VH: B2 VH with S103P, S104F, H111F
VL: not shown
notes: Tested as Fab made in E. coli: VH in Plasmid A (CH1, His6 and Flag tags), VL in Plasmid C (kappa CL); also called APFF / parent; H:APFF & L:wt
As to B3, the ECL signal is 370 in assay [3]; 312 in assay [4]; 433 in [5]; 450 in assay [6]; 172000 in assay [7]; 347 in assay [8].

B4: Fab VH1-46_IGHD6-6*01_IGHJ1*01 S102G & L6_IGKJ1*01 (Fab, V domains shown)
VH: B2 VH with A102G
VL: not shown
notes: as for B2
On to B4, for which the Signal/Noise in [1] stood at 5.1; in assay [2], 5.2.

B5: Fab VH1-46_IGHD6-6*01_IGHJ1*01 S102A/S103P/S104F/H111F (APFF) & L6_IGKJ1*01 S30L (Fab, V domains shown)
VH: B2 VH with S103P, S104F, H111F
VL: EIVLTQSPATLSLSPGERATLSCRASQSVLSYLAWYQQKPGQAPRLLIYDASNRATGIPARFSGSGSGTDFTLTISSLEPEDFAVYYCQQRSNWPPWTFGQGTKVEIKR
notes: Fab; VH cloned into Plasmid A (CH1, His6 and Flag tags) and VL into Plasmid C (kappa CL); also called APFF / S30L
For the molecule B5, the ECL signal in assay [9] is 270; in [10] it was 332; in assay [11] it was 351; in assay [12], 406; in [13], 315; in assay [14] it was 540. In addition, the figures for the ECL signal in assay [15] and in assay [16] were 295 and 389, respectively.

B6: Fab VH1-46_IGHD6-6*01_IGHJ1*01 S102V & L6_IGKJ1*01 (Fab, V domains shown)
VH: B2 VH with A102V
VL: not shown
notes: as for B2
B6: the Signal/Noise in assay [1] was found to be 35.9; in assay [2] it was 36.5.

B7: Fab VH1-46_IGHD6-6*01_IGHJ1*01 S103P & L6_IGKJ1*01 (Fab, V domains shown)
VH: B2 VH with A102S, S103P
VL: not shown
notes: as for B2
B7: the Signal/Noise in assay [1] amounted to 59.7; in [2] it was 82.4.

B8: Fab VH1-46_IGHD6-6*01_IGHJ1*01 S103C & L6_IGKJ1*01 (Fab, V domains shown)
VH: B2 VH with A102S, S103C
VL: not shown
notes: as for B2
Regarding B8, the Signal/Noise turned out to be 27.1 in assay [1] and 27.4 in assay [2].

B9: Fab VH1-46_IGHD6-6*01_IGHJ1*01 S102Q & L6_IGKJ1*01 (Fab, V domains shown)
VH: B2 VH with A102Q
VL: not shown
notes: Fab; heavy chain CDR3 NNK mutant of the parent; Constant parts as for the parent Fab (CH1 with His6/Flag tags, kappa CL)
On to B9, for which the Signal/Noise in [1] turned out to be 40.6; in assay [2], 31.9.

B10: Fab VH1-46_IGHD6-6*01_IGHJ1*01 S103H & L6_IGKJ1*01 (Fab, V domains shown)
VH: B2 VH with A102S, S103H
VL: not shown
notes: as for B2
Regarding B10, the Signal/Noise in [1] amounted to 21.7; in [2], 31.7.

B11: Fab VH1-46_IGHD6-6*01_IGHJ1*01 S102I & L6_IGKJ1*01 (Fab, V domains shown)
VH: B2 VH with A102I
VL: not shown
notes: as for B2
B11: the Signal/Noise in [1] is 35.3; in assay [2] it was 34.5.

B12: Fab VH5-51_IGHD5-18*01>3_IGHJ4*01 G100K/G104T (H:KT) & V3-4_IGLJ1*01 (Fab, V domains shown)
VH: EVQLVQSGAEVKKPGESLKISCKGSGYSFTSYWIGWVRQMPGKGLEWMGIIYPGDSDTRYSPSFQGQVTISADKSISTAYLQWSSLKASDTAMYYCARRKYSYTYDYFDYWGQGTLVTVSS
VL: QTVVTQEPSFSVSPGGTVTLTCGLSSGSVSTSYYPSWYQQTPGQAPRTLIYSTNTRSSGVPDRFSGSILGNKAALTITGAQADDESDYYCVLYMGSGISYVFGTGTKVTVL
notes: Tested as purified Fab made in E. coli; also called H:KT & L:wt; KT double mutant
For B12, the “ECL Signal/Noise” value in [17] is 49.2.

B13: Fab VH5-51_IGHD5-18*01>3_IGHJ4*01 G100K/G104T (H:KT) & V3-4_IGLJ1*01 L92A (Fab, V domains shown)
VH: B12 VH
VL: B12 VL with L92A
notes: Fab; CH1 (His6/Flag tags, plasmid A) and lambda CL (plasmid E) as for the parent
Regarding B13, in [17], the “ECL Signal/Noise” value is 30.3.

B14: Fab VH5-51_IGHD5-18*01>3_IGHJ4*01 G100K/G104T (H:KT) & V3-4_IGLJ1*01 I98A (Fab, V domains shown)
VH: B12 VH
VL: B12 VL with I98A
notes: as for B13
As to B14, in assay [17], the “ECL Signal/Noise” value is 32.6.

B15: Fab VH5-51_IGHD5-18*01>3_IGHJ4*01 G100K/G104T (H:KT) & V3-4_IGLJ1*01 V91A (Fab, V domains shown)
VH: B12 VH
VL: B12 VL with V91A
notes: as for B13
As to B15, in assay [17], the “ECL Signal/Noise” value came to 48.5.

B16: Fab VH5-51_IGHD5-18*01>3_IGHJ4*01 G100K/G104T (H:KT) & V3-4_IGLJ1*01 S96A (Fab, V domains shown)
VH: B12 VH
VL: B12 VL with S96A
notes: as for B13
As for B16, the “ECL Signal/Noise” value in assay [17] was found to be 57.9.

B17: Fab VH5-51_IGHD5-18*01>3_IGHJ4*01 G100K/G104T (H:KT) & V3-4_IGLJ1*01 G97A (Fab, V domains shown)
VH: B12 VH
VL: B12 VL with G97A
notes: as for B13
Turning to B17, the “ECL Signal/Noise” value in assay [17] turned out to be 24.7.

B18: Fab VH5-51_IGHD5-18*01>3_IGHJ4*01 G100K/G104T (H:KT) & V3-4_IGLJ1*01 M94A (Fab, V domains shown)
VH: B12 VH
VL: B12 VL with M94A
notes: as for B13
For B18, the “ECL Signal/Noise” value in assay [17] was 53.1.

B19: Fab VH5-51_IGHD5-18*01>3_IGHJ4*01 G100K/G104T (H:KT) & V3-4_IGLJ1*01 S99A (Fab, V domains shown)
VH: B12 VH
VL: B12 VL with S99A
notes: as for B13
For B19, in [17], the “ECL Signal/Noise” value came out at 41.

B20: Fab VH5-51_IGHD5-18*01>3_IGHJ4*01 G100K/G104T (H:KT) & V3-4_IGLJ1*01 G95A (Fab, V domains shown)
VH: B12 VH
VL: B12 VL with G95A
notes: as for B13
B20: the “ECL Signal/Noise” value in assay [17] came to 34.4.

B21: Fab VH5-51_IGHD5-18*01>3_IGHJ4*01 G100K/G104T (H:KT) & V3-4_IGLJ1*01 Y93A (Fab, V domains shown)
VH: B12 VH
VL: B12 VL with Y93A
notes: as for B13
With B21, the “ECL Signal/Noise” value in assay [17] turned out to be 21.3.
